In the supplement of paper PMC7125110:
± gives the standard error. Variants at the floor of the assay were thinned out.

B1: glmS ribozyme (parent)
chain: AUAAAAGCGCCAGAACUACAGAAAUGUAGUUGACGAGGAGGAGGUUUAUCGAAUUUUCGGCGGAUGCCUCCAAA

Legend:
Conditions in all cases: with glucosamine-6-phosphate
glucosamine-6-phosphate [1] = variants of: B1; assay: self-cleavage kobs at 40 uM GlcN6P; higher = faster cleavage; RNA array
Procedure, shortened: (§1)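 Ribozyme variants carrying barcodes were transcribed in situ on sequenced MiSeq chips by E. coli RNA polymerase and tracked at 37 °C with a hybridised Cy3 probe. They were exposed to 40 μM to 10 mM glucosamine-6-phosphate in HEPES/KCl/Mg(OAc)2 buffer. kobs came from exponential decay fits of normalised per-tile medians, and kcat and KM from weighted Michaelis–Menten fits.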

glucosamine-6-phosphate [2] = variants of: B1; assay: self-cleavage kobs at 10000 uM GlcN6P; higher = faster cleavage; RNA array
Procedure, shortened: as §1

glucosamine-6-phosphate [3] = variants of: B1; assay: self-cleavage kobs at 160 uM GlcN6P; higher = faster cleavage; RNA array
Procedure, shortened: as §1

glucosamine-6-phosphate [4] = variants of: B1; assay: self-cleavage kobs at 640 uM GlcN6P; higher = faster cleavage; RNA array
Procedure, shortened: as §1

glucosamine-6-phosphate [5] = variants of: B1; assay: self-cleavage kobs at 2500 uM GlcN6P; higher = faster cleavage; RNA array
Procedure, shortened: as §1

Variant | self-cleavage kobs at 40 uM GlcN6P (glucosamine-6-phosphate [1]) [s⁻¹] | self-cleavage kobs at 10000 uM GlcN6P (glucosamine-6-phosphate [2]) [s⁻¹] | self-cleavage kobs at 160 uM GlcN6P (glucosamine-6-phosphate [3]) [s⁻¹] | self-cleavage kobs at 640 uM GlcN6P (glucosamine-6-phosphate [4]) [s⁻¹] | self-cleavage kobs at 2500 uM GlcN6P (glucosamine-6-phosphate [5]) [s⁻¹]
U45A A53G U55G | 0.00113 ± 0.00021 | 0.0551 ± 0.018 |  |  | 
U47A A53G U54G | 0.000659 ± 0.00016 | 0.0222 ± 0.0081 |  |  | 
U46G G63C | < 1e-05 | < 1e-05 | < 1e-05 | < 1e-05 | < 1e-05
U46G A48C | < 1e-05 |  | < 1e-05 | < 1e-05 | 
G44U A52C | < 1e-05 | < 1e-05 | < 1e-05 | < 1e-05 | < 1e-05
G44A U65G | < 1e-05 |  | < 1e-05 |  | 
G44U U57A U69A | < 1e-05 | < 1e-05 | < 1e-05 | < 1e-05 | 
U46G U56A | 5.1e-05 ± 7.3e-06 | 0.00224 ± 0.00042 |  | 0.000601 ± 0.00017 | 
U47G U69A | 5.4e-05 ± 1.7e-05 | 8.6e-05 ± 1.4e-05 | 7.68e-05 ± 1.4e-05 | 7.46e-05 ± 1.4e-05 | 0.000193 ± 3.4e-05
G44U C50U C67G | < 1e-05 |  |  |  | 
U47G C58A G59A C70A | 4.75e-05 ± 1.8e-05 |  |  |  | 
G44C G59C | < 1e-05 | < 1e-05 |  | < 1e-05 | < 1e-05
U47A C58U | < 1e-05 | 6e-05 ± 2.1e-05 |  |  | 
G44C U65G | < 1e-05 |  | < 1e-05 | < 1e-05 | 
G44A C58A C70U | < 1e-05 |  | < 1e-05 | < 1e-05 | 
U47A A52C | < 1e-05 |  |  |  | 
G44C G51U | < 1e-05 | < 1e-05 |  |  | < 1e-05
U46G U57A | < 1e-05 | 5.59e-05 ± 7.8e-06 |  |  | 
G44A G51A C67U | < 1e-05 |  |  |  | 
G44U G59U U65G | < 1e-05 |  |  |  | < 1e-05
U46G G51U U57A C70G | 4.37e-05 ± 1.9e-05 |  |  |  | 
G44C U55G C70U | < 1e-05 |  |  | < 1e-05 | 
G44C U54A U57A U65G U69G | < 1e-05 | < 1e-05 |  |  | 
U47A G51U | < 1e-05 | < 1e-05 | < 1e-05 |  | 

Variant | self-cleavage kobs at 40 uM GlcN6P (glucosamine-6-phosphate [1]) [s⁻¹] | self-cleavage kobs at 10000 uM GlcN6P (glucosamine-6-phosphate [2]) [s⁻¹] | self-cleavage kobs at 160 uM GlcN6P (glucosamine-6-phosphate [3]) [s⁻¹] | self-cleavage kobs at 640 uM GlcN6P (glucosamine-6-phosphate [4]) [s⁻¹] | self-cleavage kobs at 2500 uM GlcN6P (glucosamine-6-phosphate [5]) [s⁻¹]
U47A G51C | < 1e-05 | < 1e-05 | < 1e-05 |  | < 1e-05
G44U C70A | < 1e-05 | < 1e-05 | < 1e-05 | < 1e-05 | < 1e-05
G44U G51U C67G | < 1e-05 | < 1e-05 |  |  | < 1e-05
U46C G63U C70A | < 1e-05 |  |  |  | 
U45C C67A C70G | < 1e-05 |  |  |  | < 1e-05
U45A C67A | 0.000364 ± 5.5e-05 | 0.00719 ± 0.0014 |  |  | 0.00568 ± 0.0022
U46A U49C | < 1e-05 | < 1e-05 | < 1e-05 | < 1e-05 | < 1e-05
G44U C61G | < 1e-05 | < 1e-05 | < 1e-05 | < 1e-05 | < 1e-05
U46C G60A | < 1e-05 |  | < 1e-05 | < 1e-05 | 
U45G U46G C61A | < 1e-05 | < 1e-05 |  |  | 
U47C A48U C70U | < 1e-05 | 0.00044 ± 9.8e-05 |  | 3.27e-05 ± 1.2e-05 | 
U46G U65A C70U | 8.31e-05 ± 1.9e-05 | 0.00117 ± 0.00024 |  |  | 
U47G A64C | < 1e-05 |  |  |  | 
U47A C50G C68A | 0.000209 ± 7.9e-05 | 0.000323 ± 6.5e-05 |  |  | 
U47A U56A | 0.00024 ± 5.3e-05 | 0.0235 ± 0.0091 | 0.000539 ± 0.0001 | 0.00196 ± 0.00027 | 0.00548 ± 0.0015
U45A G60A | < 1e-05 |  | < 1e-05 |  | 
U47C A48G C50G C70G | 3.16e-05 ± 1.6e-05 |  |  |  | 
U46A G51C | < 1e-05 | < 1e-05 |  | < 1e-05 | < 1e-05
U45A U55C | 0.000654 ± 0.00021 | 0.024 ± 0.0085 |  | 0.00526 ± 0.0015 | 0.00714 ± 0.0029
U47A U54C | 0.000843 ± 0.0002 |  | 0.00125 ± 0.00029 | 0.00582 ± 0.0015 | 0.014 ± 0.0038
U47A U54G | 0.0005 ± 0.00016 |  |  | 0.0103 ± 0.0034 | 0.00345 ± 0.0016
G44A C71G | < 1e-05 | < 1e-05 | < 1e-05 | < 1e-05 | 
G44C C67A | 0.000178 ± 2.3e-05 | 0.00668 ± 0.0019 | 0.00032 ± 9e-05 | 0.00196 ± 0.00037 | 0.00486 ± 0.0014
